Values belong to the binder of their own block, whether it stands above or below them.
Molecular target: T1, (H3–H4)2 tetramer (Xenopus laevis, UniProt P84233 1-136; P62799 1-103, H4 E63C, Alexa 488 maleimide on C63 (H4 E63C))
T1 construct: Histone H3, Xenopus laevis; also called H3–H4 tetramer; H3–H4 complex; copies: 2 + 2
Assay: other fluorescence titration; Arp constructs or sub-complex titrated (1 to 5000 nM) into fluorescently labelled histone complexes or nucleosomes kept at 0.5-1 nM, 40 µl in microplates; 20 mM Tris pH 7.5, 150 mM KCl, 5% glycerol, 1 mM TCEP, 0.01% CHAPS, 0.01% octylglucoside; room temperature, 20-30 min; apparent Kd and Hill coefficient from non-linear fit; quadruplicates
Conditions: both partners purified

- Kd: 485 nM
B1: Saccharomyces cerevisiae Arp8 (natural protein)
chain: MSQEEAESSIIYEEPIDIPLEDDDDEDELEEENSVPLSSQADQENAENESDDSVDNVVGSETPRSVTGLSVDPRDVADEEDEDEEGEDEDEDEDDNDVDNEDENDNDNANENENELGSSRDKRAPPAVQTSKRYKKYPKLDPAKAPPGKKVPLHLLEKRRLGRIKAAEEFAKTLKKIGIEKVETTTLPATGLFQPLMLINQKNYSSDYLKKDDQIFALRDRKFLRNNNTSQISSTNTPDVIDLKSLPHSEASAAPLNDEIDLNDPTATIVIHPGSNSIKIGFPKDDHPVVVPNCVAVPKKWLDLENSEHVENVCLQREQSEEFNNIKSEMEKNFRERMRYYKRKVPGNAHEQVVSFNENSKPEIISEKNDPSPIEWIFDDSKLYYGSDALRCVDEKFVIRKPFRGGSFNVKSPYYKSLAELISDVTKLLEHALNSETLNVKPTKFNQYKVVLVIPDIFKKSHVETFIRVLLTELQFQAVAIIQESLATCYGAGISTSTCVVNIGAAETRIACVDEGTVLEHSAITLDYGGDDITRLFALFLLQSDFPLQDWKIDSKHGWLLAERLKKNFTTFQDADVAVQLYNFMNRSPNQPTEKYEFKLFDEVMLAPLALFFPQIFKLIRTSSHKNSSLEFQLPESRDLFTNELNDWNSLSQFESKEGNLYCDLNDDLKILNRILDAHNIIDQLQDKPENYGNTLKENFAPLEKAIVQSIANASITADVTRMNSFYSNILIVGGSSKIPALDFILTDRINIWRPSLLSSASFPQFYKKLTKEIKDLEGHYVNAPDKTEDENKQILQAQIKEKIVEELEEQHQNIEHQNGNEHIFPVSIIPPPRDMNPALIIWKGASVLAQIKLVEELFITNSDWDVHGSRILQYKCIFTY
notes: Actin-related protein 8 (Arp8), S. cerevisiae; also called Sc Arp8; yeast Arp8

- Kd: 74.3 nM
B2: Saccharomyces cerevisiae Arp4 (natural protein)
chain: MSNAALQVYGGDEVSAVVIDPGSYTTNIGYSGSDFPQSILPSVYGKYTADEGNKKIFSEQSIGIPRKDYELKPIIENGLVIDWDTAQEQWQWALQNELYLNSNSGIPALLTEPVWNSTENRKKSLEVLLEGMQFEACYLAPTSTCVSFAAGRPNCLVVDIGHDTCSVSPIVDGMTLSKSTRRNFIAGKFINHLIKKALEPKEIIPLFAIKQRKPEFIKKTFDYEVDKSLYDYANNRGFFQECKETLCHICPTKTLEETKTELSSTAKRSIESPWNEEIVFDNETRYGFAEELFLPKEDDIPANWPRSNSGVVKTWRNDYVPLKRTKPSGVNKSDKKVTPTEEKEQEAVSKSTSPAANSADTPNETGKRPLEEEKPPKENNELIGLADLVYSSIMSSDVDLRATLAHNVVLTGGTSSIPGLSDRLMTELNKILPSLKFRILTTGHTIERQYQSWLGGSILTSLGTFHQLWVGKKEYEEVGVERLLNDRFR
notes: Actin-related protein 4 (Arp4), S. cerevisiae; also called Sc Arp4; yeast Arp4

— PMC3510490 (Nucleic Acids Research, 2012)
